Columns and labels:
[1] = system: primary rat Schwann cells; experiment: Induction of protein zero expression in Schwann cells (Western blot); assay type: cell-based; details: 100 ng/ml, N2 medium + 1 μM progesterone
Description: Primary Schwann cells were prepared as described above using 1-day old CD rat neonates. Schwann cells were grown in DMEM, 10% fetal bovine serum (FBS), plus bovine pituitary extract (PEX) at 20 μg/ml and Forskolin at 2μM. The cells were weaned down to a low serum medium (“Li” medium with 1% FBS added to it). Li medium was comprised of DMEM/F12, 10 μg/ml tranferrin, 5 μg/ml insulin, 2 nM progesterone, 2 μM Forskolin, 20 μg/ml PEX, and 20 ng/ml Heregulin-beta-1 (R & D Systems).
The Schwann cells were grown to confluency in the low serum growth medium on poly-L-lysine-coated 10 cm tissue culture dishes. The cell medium was changed to N2 medium+1 μM progesterone with either Forskolin (Calbiochem) (10 μM and 25 μM) or 100 ng/ml of human Zcyto7. Control medium was Schwann cells in N2+1 μM progesterone for the whole time. Cells were harvested and placed in lysis buffer (125 mM Tris HCl, pH 7.0, 15% sucrose, 4% SDS, 10 mM EDTA, plus added Roche Complete-EDTA-free, protease inhibitor cocktail).
Protein concentrations of cell lysates were determined by Pierce BCA protein assay (Pierce Chemical Co., Rockford, Ill.). Forty micrograms of each cell lysate sample was run on a 4-12% Tris-Glycine gel (Novex) at 125 V for 1 hour 30 minutes, and transferred onto a PVDF membrane in a Hoeffer unit a 550 mAmps for 1 hour. Mouse monoclonal antibody to protein zero was used at 1:1000 dilution (1 μg/am final concentration) to probe the blot. A Vectastain biotin/streptavidin-HRP 2nd antibody system was used for amplication. The blot was developed with Pierce SuperSignal West Pico chemiluminescent substrate and scanned on a Boehringer-Mannheim Lumi-Imager.

[2] = system: mRNA that encodes myelin basic protein and protein zero; experiment: Hybridization studies: mRNA levels that encode myelin basic protein and protein zero; assay type: cell-based
Description: The expression of myelin basic protein and protein zero was also determined by measuring the mRNA levels that encode myelin basic protein and protein zero.

B1: human Zcyto7: Human Zcyto7 polypeptide (SEQ ID NO: 2), identified by its homology to Interleukin-17; used at 100 ng/ml (protein)
chain: MDWPHNLLFLLTISIFLGLGQPRSPKSKRKGQGRPGPLAPGPHQVPLDLVSRMKPYARMEEYERNIEEMVAQLRNSSELAQRKCEVNLQLWMSNKRSLSPWGYSINHDPSRIPVDLPEARCLCLGCVNPFTMQEDRSMVSVPVFSQVPVRRRLCPPPPRTGPCRQRAVMETIAVGCTCIF
Relative percentage of P zero protein (media control = 100%) [1]: 173%

B2: Zcyto7: Zcyto7 polypeptide; species and solution not stated in Example 6 (protein)
chain: B1 chain
mRNA that encodes for myelin basic protein [2]: upregulated
mRNA that encodes for protein zero [2]: upregulated
